Laboratory results from paper doi:10.1101/2025.08.28.672883 (2025).
“And” between values parts separate entries of the source, which are not always exact repeats. Identical values can stand only once.

Target: SARS-CoV-2 spike receptor-binding domain, prototype (RBD-WT) (SARS-CoV-2, UniProt P0DTC2 333-528)
Assay: BLI

Binder | Kd
VYD222 Fab (Fab, V domains shown) VH: EVQLVESGGGLVKPGGSLRLSCAASGFTFGSYEMNWVRQAPGKGLEWVSSISEDGYSTYYPDSLKGRFTISRDSAKNSLYLQMNSLRADDTAVYYCARDFGGDTAWAGTGFTYWGQGTLVTVSS VL: QSVLTQPPSVSGAPGQRITISCTGSSSNIGAGYDVHWYQQLPGTAPKLLIYGSSSRNYGVPDRFSGSKSGTSASLAITGLQAEDEADYYCQSYDSDLGVLYTFGTGTKVTVL | 5.4 nM and 5 nM
ADI-77310 Fab (Fab, V domains shown) VH: EVQLVESGGGLVKPGGSLRLSCAASGFTFGSYYMNWVRQAPGKGLEWVSSISEDGYSTYYPDSLKGRFTISRDSAKNSLYLQMNSLRADDTAVYYCARDFGGHTAWAGTGFTYWGQGTLVTVSS VL: QSVLTQPPSVSGAPGQRITISCTGSSSNIGAGYDVHWYQQLPGTAPKLLIYGSSSRNSGVPDRFSGSKSGTSASLAITGLQAEDEADYYCQSYDSDLSVLYTFGTGTKVTVL | 1 nM and 0.8 nM
